In patent US20140072563A1 (Regeneron, published 2014):
Changes are numbered by the printed parent chain. Numbers in names are those of the source.

Key:
[1] = target: ErbB3 (cell surface, on MCF-7, DU145, A431 and MCF7 cells) (human, UniProt P21860 20-1342); test: cell-based or functional assay
[2] = target: hErbB3.mmh (soluble monomeric human ErbB3 extracellular domain with C-terminal myc-myc-hexahistidine tag) (human, UniProt P21860 20-642); test: SPR (Biacore), 25 C, mAb capture format
Protocol: (§1) (Tables 2-4). Measurements were conducted on a Biacore 2000 or T100 instrument. […] Kinetic association (kₐ) and dissociation (kd) rate constants were determined by processing and fitting the data to a 1:1 binding model using Scrubber 2.0 curve fitting software.

[3] = target: T1, hErbB3.hFc (soluble dimeric human ErbB3 extracellular domain fused to human Fc) (human); test: SPR (Biacore), 25 C, mAb capture format
T1 construct: called dimeric
T1 sequence (chain, as listed by the source limits assumed): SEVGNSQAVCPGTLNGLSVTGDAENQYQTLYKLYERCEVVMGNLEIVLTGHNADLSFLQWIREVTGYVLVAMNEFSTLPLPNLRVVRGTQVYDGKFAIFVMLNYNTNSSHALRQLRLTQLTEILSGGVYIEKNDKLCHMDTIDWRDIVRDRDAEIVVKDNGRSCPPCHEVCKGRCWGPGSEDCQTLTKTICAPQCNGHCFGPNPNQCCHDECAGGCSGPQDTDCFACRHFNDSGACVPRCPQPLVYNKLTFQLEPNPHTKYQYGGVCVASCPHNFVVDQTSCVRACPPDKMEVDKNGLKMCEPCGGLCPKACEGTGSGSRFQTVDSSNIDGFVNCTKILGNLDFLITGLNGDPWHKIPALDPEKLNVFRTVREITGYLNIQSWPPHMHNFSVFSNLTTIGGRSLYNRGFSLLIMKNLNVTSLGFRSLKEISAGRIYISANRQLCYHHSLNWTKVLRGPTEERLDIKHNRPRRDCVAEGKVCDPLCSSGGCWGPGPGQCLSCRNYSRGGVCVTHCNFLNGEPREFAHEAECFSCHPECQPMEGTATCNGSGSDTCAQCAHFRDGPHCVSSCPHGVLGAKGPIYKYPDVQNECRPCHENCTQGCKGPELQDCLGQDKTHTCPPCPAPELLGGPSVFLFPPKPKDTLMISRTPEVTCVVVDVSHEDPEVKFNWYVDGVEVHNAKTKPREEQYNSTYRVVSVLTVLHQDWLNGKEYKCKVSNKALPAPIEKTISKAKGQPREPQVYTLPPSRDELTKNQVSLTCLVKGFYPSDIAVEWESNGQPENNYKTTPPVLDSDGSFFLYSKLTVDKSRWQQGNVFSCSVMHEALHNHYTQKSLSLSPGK
Protocol: as §1

[4] = target: T1, hErbB3.hFc (soluble dimeric human ErbB3 …); test: blocking ELISA: antibody + 50 pM ErbB3-hFc on neuregulin1b-coated plate
Description: To further characterize anti-hErbB3 mAbs of the present invention, their ability to block ligand binding was examined via ELISA. […] Plates were washed and non-sequestered (plate bound) ErbB3 was detected with an anti-Fc poly conjugated with horseradish peroxidase (HRP). Plates were developed with TMB (3,3′,5,5′-tetramethylbenzidine) and neutralized with sulfuric acid before reading absorbance at 450 nm on a Victor X5 plate reader. Data analysis used a sigmoidal dose-response model within Prism™ software. […] Maximal blocking for each antibody was calculated by taking the difference in absorbance from zero to 50 nM antibody on the inhibition curve, divided by the difference in absorbance from 50 pM to zero ErbB3 on the dose curve.

hErbB3.mmh (soluble monomeric human ErbB3 extracellular domain with C-terminal myc-myc-hexahistidine tag), sequence (P21860 other isoform, or with tags, fused parts or gaps): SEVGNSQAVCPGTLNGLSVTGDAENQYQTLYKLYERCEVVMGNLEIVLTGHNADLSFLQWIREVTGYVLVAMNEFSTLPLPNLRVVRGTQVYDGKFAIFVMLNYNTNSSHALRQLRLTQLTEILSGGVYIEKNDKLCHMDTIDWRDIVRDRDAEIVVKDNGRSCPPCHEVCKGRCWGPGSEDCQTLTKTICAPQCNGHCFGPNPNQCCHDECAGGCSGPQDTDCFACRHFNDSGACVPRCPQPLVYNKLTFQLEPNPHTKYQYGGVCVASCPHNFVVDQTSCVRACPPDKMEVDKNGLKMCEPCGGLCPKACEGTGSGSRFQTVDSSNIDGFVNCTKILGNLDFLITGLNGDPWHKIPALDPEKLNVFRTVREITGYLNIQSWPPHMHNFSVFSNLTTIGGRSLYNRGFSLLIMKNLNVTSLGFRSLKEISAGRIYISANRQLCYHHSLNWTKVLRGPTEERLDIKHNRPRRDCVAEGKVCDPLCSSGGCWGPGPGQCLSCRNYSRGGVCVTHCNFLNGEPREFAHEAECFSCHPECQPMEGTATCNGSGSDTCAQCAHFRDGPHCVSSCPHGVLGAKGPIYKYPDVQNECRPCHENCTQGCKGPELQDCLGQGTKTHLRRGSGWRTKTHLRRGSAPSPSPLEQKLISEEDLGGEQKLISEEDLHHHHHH

B1: H2M1930N (antibody, mouse IgG2, V domains shown)
VH: EVQLVESGGGLVKPGGSLRLSCVASGFTFSSYNMNWVRQAPGKGLEWVSFISGSSNYIHYADSVKGRFTISRDNAKNALYLQMNSLRAEDTAVYYCARDDGDYDWFDPWGQGTLVTVSS
VL: EIVLTQSPGTLSLSPGERATLSCRASQSVSSSYLAWYQQKPGQAPRLLIYGTSSRATGIPDRFSGSGSGTDFTLTISRLEPEDFAVYYCQQYDNSYTFGQGTKLEIK
[1]
  Percent inhibition of Akt phosphorylation, 0.01 µg/ml ErbB3 antibody, DU145 cells + 0.5 nM NRG1: 39%
  Percent inhibition of Akt phosphorylation, 0.1 µg/ml ErbB3 antibody, DU145 cells + 0.5 nM NRG1: 64%
  Percent inhibition of Akt phosphorylation, 0.5 µg/ml ErbB3 antibody, DU145 cells + 0.5 nM NRG1: 66%

B2: H2M1934N (antibody, mouse IgG2, V domains shown)
VH: EVQLVQSGGGLVKPGGSLRLSCAASGFTFSNFNMNWVRQAPGKGLEWVSFISSLSTYTYYADSVKGRFTISRDNAKNSLYLQMNSLRAEDTAVYYCARDDGDHDWFDPWGQGTLVTVSS
VL: B1 VL with G9D, S32N, G51S, T52A, S54N, N94S
[1]
  Percent inhibition of Akt phosphorylation, 0.01 µg/ml ErbB3 antibody, DU145 cells + 0.5 nM NRG1: 20%
  Percent inhibition of Akt phosphorylation, 0.1 µg/ml ErbB3 antibody, DU145 cells + 0.5 nM NRG1: 56%
  Percent inhibition of Akt phosphorylation, 0.5 µg/ml ErbB3 antibody, DU145 cells + 0.5 nM NRG1: 67%

B3: H2M1934N (antibody, V domains shown)
VH: B2 VH
VL: B1 VL with G9D, S32N, G51S, T52A, S54N, N94S
notes: Hybridoma chimeric antibody: human variable domains, mouse IgG2 Fc (H2M prefix)
[2]
  Kd: 0.438 nM
  T½: 2.62 h
  koff: 7.35e-05 s⁻¹
  kon: 168000 M⁻¹ s⁻¹
[3]
  Kd: 0.0222 nM
  T½: 24.2 h
  koff: 7.97e-06 s⁻¹
  kon: 359000 M⁻¹ s⁻¹
[4]
  IC50: 0.0261 nM
  Maximal Blocking (%): 80%

B4: H2M1930N (antibody, V domains shown)
VH: B1 VH
VL: B1 VL
notes: as for B3
[2]
  Kd: 0.559 nM
  T½: 1.77 h
  koff: 0.000109 s⁻¹
  kon: 196000 M⁻¹ s⁻¹
[3]
  Kd: 0.0205 nM
  T½: 23.3 h
  koff: 8.27e-06 s⁻¹
  kon: 404000 M⁻¹ s⁻¹
[4]
  IC50: 0.0222 nM
  Maximal Blocking (%): 87%

B5: H2M1936N (antibody, mouse IgG2, V domains shown)
VH: EMQLVESGGGLVQPDRSLRLSCAASGFNFDNYAIHWVRQAPGKGLEWVSGISWNSGNIGYADSVKGRFTISRDNAKNSLFLLMNSLRPDDSALYYCTRGYNWNALSPMDVWGQGTTVTVSS
VL: DIQMTQSPSSLSASVGDRVTVTCRASQGISNYLAWYQQKPGKVPKLLIYAASTLQSGVPSRFSGSGSGTDFTLTISSLQPEDVASYYCQNYNSAPMTFGQGTKVEIK
[1]
  Percent inhibition of Akt phosphorylation, 0.01 µg/ml ErbB3 antibody, DU145 cells + 0.5 nM NRG1: 6%
  Percent inhibition of Akt phosphorylation, 0.1 µg/ml ErbB3 antibody, DU145 cells + 0.5 nM NRG1: 30%
  Percent inhibition of Akt phosphorylation, 0.5 µg/ml ErbB3 antibody, DU145 cells + 0.5 nM NRG1: 67%

B6: H1M1819N (antibody, V domains shown)
VH: EVQLVESGGGVVRPGGSLRLSCAASGFTFDDYAMHWVRQAPGKGLEWVAGISWNSGSIDYADSVKGRFTISRDNAKNSLYLQMNSLRAGDTALYYCAKDILDLDYYGLDVWGQGTTVTVSS
VL: B5 VL with V21I, G28D, N31S, K45N, A50D, T53S, I75L, V83F, M96Y, V104L
notes: Hybridoma chimeric antibody: human variable domains, mouse constant domains (H1M prefix, mouse Fc)
[2]
  Kd: 1.01 nM
  T½: 0.6 h
  koff: 0.000322 s⁻¹
  kon: 319000 M⁻¹ s⁻¹
[3]
  Kd: 0.122 nM
  T½: 3.27 h
  koff: 5.88e-05 s⁻¹
  kon: 480000 M⁻¹ s⁻¹
[4]
  IC50: 0.0315 nM
  Maximal Blocking (%): 92%

B7: H2M1937N (antibody, mouse IgG2, V domains shown)
VH: QVQLQQWDAGLLKPSETLSLTCAVYGGSFSSYYWSWIRQPPGKGLEWIGEINHRGSTNYNPSLKSRVTISVDTSKNQFSLKLRSVTAADTAVYYCARGGVAARPDWHFFDYWGQGTLVTVSS
VL: DIQMTQSPSSLSASVGDRVTITCRASQVIRNDLGWFQQRPGKAPKRLIYAASSLQSEVPSRFSGSGSGTEFTLTITSLQPEDFATYYCLQHNSYPLTFGQGTRLEIK
[1]
  Percent inhibition of Akt phosphorylation, 0.01 µg/ml ErbB3 antibody, DU145 cells + 0.5 nM NRG1: -13%
  Percent inhibition of Akt phosphorylation, 0.1 µg/ml ErbB3 antibody, DU145 cells + 0.5 nM NRG1: 41%
  Percent inhibition of Akt phosphorylation, 0.5 µg/ml ErbB3 antibody, DU145 cells + 0.5 nM NRG1: 71%

B8: H2M1829N (antibody, mouse IgG2, V domains shown)
VH: EVQLVESGGGVVRPGGSLRLSCVASGFTFDDYGMSWVRQAPGKGLECVSGINWNGGSTDYADSVKGRFTISRDNAKNSLYLQMNSLRAEDTALYHCARDGGDWDYFDLWGRGTLVTVSS
VL: EILMTQSPATLSVSPGERATLSCRASQSVSSNLAWYQQKPGQAPRLLIYGASTRATGIPARFSGSGSGTEFTLTISSLQSEDFAIYYCQEYNDWPLTFGGGTKVEIK
[1]
  Percent inhibition of Akt phosphorylation, 0.01 µg/ml ErbB3 antibody, DU145 cells + 0.5 nM NRG1: 22%
  Percent inhibition of Akt phosphorylation, 0.1 µg/ml ErbB3 antibody, DU145 cells + 0.5 nM NRG1: 74%
  Percent inhibition of Akt phosphorylation, 0.5 µg/ml ErbB3 antibody, DU145 cells + 0.5 nM NRG1: 74%

B9: H2M1829N (antibody, V domains shown)
VH: B8 VH
VL: B8 VL
notes: as for B3
[2]
  Kd: 0.281 nM
  T½: 2.98 h
  koff: 6.46e-05 s⁻¹
  kon: 230000 M⁻¹ s⁻¹
[3]
  Kd: 0.0198 nM
  T½: 22.4 h
  koff: 8.61e-06 s⁻¹
  kon: 436000 M⁻¹ s⁻¹
[4]
  IC50: 0.0238 nM
  Maximal Blocking (%): 98%

B10: H2M1824N (antibody, V domains shown)
VH: B8 VH with V23A, L93S, H95Y
VL: B8 VL with L3V, I85V, Y87F
notes: as for B3
[2]
  Kd: 0.205 nM
  T½: 4.23 h
  koff: 4.56e-05 s⁻¹
  kon: 223000 M⁻¹ s⁻¹
[3]
  Kd: 0.00334 nM
  T½: 134 h
  koff: 1.44e-06 s⁻¹
  kon: 431000 M⁻¹ s⁻¹
[4]
  IC50: 0.0251 nM
  Maximal Blocking (%): 99%

B11: H2M1827N (antibody, V domains shown)
VH: B8 VH with V23A, N52S, S57N
VL: B8 VL
notes: as for B3
[2]
  Kd: 0.409 nM
  T½: 2.15 h
  koff: 8.96e-05 s⁻¹
  kon: 219000 M⁻¹ s⁻¹
[3]
  Kd: 0.0173 nM
  T½: 25.4 h
  koff: 7.58e-06 s⁻¹
  kon: 439000 M⁻¹ s⁻¹
[4]
  IC50: 0.0229 nM
  Maximal Blocking (%): 98%

B12: H1M1940N (antibody, V domains shown)
VH: QVQVVESGGGVVQPGRSLRLSCAASGFTFSDYGMHWVRQAPGKGLEWVAIISYDGSNKYYADSVKGRFTVSRDNSKNTLYLQLDSLRPEDAAVFYCAREGAFNLDYYAMDVWGQGTTVTVSS
VL: AIQMTQSPSSLSASVGDRVTITCRASQDIRNDLGWYQQKPGKAPNLLIYAASSLQSGVPSRFSGSGSGTDFTLTISSLQPEDFATYYCLQDSNYPLTFGGGTKVEIK
[1]
  Percent inhibition of Akt phosphorylation, 0.01 µg/ml ErbB3 antibody, DU145 cells + 0.5 nM NRG1: 13%
  Percent inhibition of Akt phosphorylation, 0.1 µg/ml ErbB3 antibody, DU145 cells + 0.5 nM NRG1: 50%
  Percent inhibition of Akt phosphorylation, 0.5 µg/ml ErbB3 antibody, DU145 cells + 0.5 nM NRG1: 68%

B13: H2M1821N (antibody, V domains shown)
VH: EVQLVESGGGLVQPGRSLRLSCAASGFTFDDYAMHWVRQAPGKGLEWVSSISWNSGSIGYADSVKGRFTISRDNAKNSLYLQMNSLKPEDTALYYCTKDTDYGDYLDAFDIWGQGTMVAVAS
VL: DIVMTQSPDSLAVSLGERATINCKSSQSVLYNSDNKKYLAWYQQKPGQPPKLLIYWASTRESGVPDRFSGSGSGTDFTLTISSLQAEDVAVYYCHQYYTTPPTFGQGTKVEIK
notes: as for B3
[2]
  Kd: 0.867 nM
  T½: 0.967 h
  koff: 0.000199 s⁻¹
  kon: 229000 M⁻¹ s⁻¹
[3]
  Kd: 0.0413 nM
  T½: 10.1 h
  koff: 1.9e-05 s⁻¹
  kon: 461000 M⁻¹ s⁻¹
[4]
  IC50: 0.0285 nM
  Maximal Blocking (%): 96%

B14: H2M1938N (antibody, mouse IgG2, V domains shown)
VH: EVQLVESGGGVVRPGGSLRLSCAASGFTFDDYGMSWVRQVPGKGLEWVSGLNWNGGITGYTDSVKGRFTISRDNAKNSLYLQMNSLRAEDTAFYHCARDSGDQDAFDIWGQGTMVTVSS
VL: QIVMTQSPATLSVSPGERATLSCRASQSITPYLAWYQQKPGQTPRLLIYGVSTRATGIPARFSGSGSGTEFTLTISSLQSEDFAVYYCQQYDNWYTFGQGTKLEIK
[1]
  Percent inhibition of Akt phosphorylation, 0.01 µg/ml ErbB3 antibody, DU145 cells + 0.5 nM NRG1: 40%
  Percent inhibition of Akt phosphorylation, 0.1 µg/ml ErbB3 antibody, DU145 cells + 0.5 nM NRG1: 63%
  Percent inhibition of Akt phosphorylation, 0.5 µg/ml ErbB3 antibody, DU145 cells + 0.5 nM NRG1: 74%

B15: H1M1828N (antibody, V domains shown)
VH: EVQLVESGGGLVQPGRSLRLSCAASGFTFDDYAMYWVRQAPGKGLEWVSGISWNSGSIGYADSVKGRFTISRDNAKNSLYLQMDSLRAEDTALYYCARDMMEVDLYGMDVWGQGTTVTVSS
VL: DIQMTQSPSSVSASVGDRVTITCRASQDISSWLAWYQQKPGTAPKFLIYETSSLQSGVPSRFSGSGSGTDFILTISSLQPEDFATYYCQQTDSFPHTFGQGTKLEIR
notes: as for B6
[2]
  Kd: 0.515 nM
  T½: 0.733 h
  koff: 0.000265 s⁻¹
  kon: 513000 M⁻¹ s⁻¹
[3]
  Kd: 0.0279 nM
  T½: 4.43 h
  koff: 4.34e-05 s⁻¹
  kon: 1.56e+06 M⁻¹ s⁻¹
[4]
  IC50: 0.03 nM
  Maximal Blocking (%): 95%
